Source: publication PMC6821933, “IMP-68, a Novel IMP-Type Metallo-β-Lactamase in Imipenem-Susceptible Klebsiella pneumoniae” (mSphere, 2019)

Columns and labels:
IMP-11 [1] = test system: T1, IMP-11; experiment: spectrophotometric initial hydrolysis rates, […] nm, Michaelis-Menten; assay type: biochemical; details: 50 mM sodium phosphate pH 7.0, 50 μM ZnCl2, 24 ± 1 °C
T1 construct: gene blaIMP-11; signal peptide (first 19 aa) removed; His tag cut off with PreScission protease; expressed in E. coli Rosetta II

IMP-11 [2] = test system: T1, IMP-11; experiment: as above; assay type: biochemical; details: 50 mM sodium phosphate pH 7.0, 50 μM ZnCl2, 24 ± 1 °C; remark: listed apart in the source
IMP-11 [3] = test system: T1, IMP-11; experiment: as above; assay type: biochemical; details: 50 mM sodium phosphate pH 7.0, 50 μM ZnCl2, 24 ± 1 °C; remark: listed apart in the source
[4] = test system: CC(C)(O/N=C(\C(=O)N[C@@H]1C(=O)N2C(C(=O)[O-])=C(C[n+]3ccccc3)CS[C@H]12)c1csc(N)n1)C(=O)O; experiment: purified protein; assay type: biochemical, Klebsiella pneumoniae; details: 50 mM sodium phosphate pH 7.0, 50 μM ZnCl2, 24 ± 1 °C, 24.0 °C
[5] = test system: CC1(C)S[C@@H]2[C@H](NC(=O)[C@H](N)c3ccccc3)C(=O)N2[C@H]1C(=O)O; experiment: purified protein; assay type: biochemical, Klebsiella pneumoniae; details: 50 mM sodium phosphate pH 7.0, 50 μM ZnCl2, 24 ± 1 °C, 24.0 °C
[6] = test system: CO/N=C(\C(=O)N[C@@H]1C(=O)N2C(C(=O)O)=C(COC(C)=O)CS[C@H]12)c1csc(N)n1; experiment: purified protein; assay type: biochemical, Klebsiella pneumoniae; details: 50 mM sodium phosphate pH 7.0, 50 μM ZnCl2, 24 ± 1 °C, 24.0 °C
[7] = test system: C[C@@H](O)[C@H]1C(=O)N2C(C(=O)O)=C(SCCN=CN)C[C@H]12; experiment: purified protein; assay type: biochemical, Klebsiella pneumoniae; details: 50 mM sodium phosphate pH 7.0, 50 μM ZnCl2, 24 ± 1 °C, 24.0 °C
[8] = test system: C[C@@H](O)[C@H]1C(=O)N2C(C(=O)O)=C(S[C@@H]3CN[C@H](C(=O)N(C)C)C3)[C@H](C)[C@H]12; experiment: purified protein; assay type: biochemical, Klebsiella pneumoniae; details: 50 mM sodium phosphate pH 7.0, 50 μM ZnCl2, 24 ± 1 °C, 24.0 °C

## CC1(C)S[C@@H]2[C@H](NC(=O)[C@H](N)c3ccccc3)C(=O)N2[C@H]1C(=O)O [Ampicillin]
IMP-11 [1]
  Km: 830 ± 248 µM

## CO/N=C(\C(=O)N[C@@H]1C(=O)N2C(C(=O)O)=C(COC(C)=O)CS[C@H]12)c1csc(N)n1 [Cefotaxime]
IMP-11 [2]
  Km: 11.8 ± 2.2 µM

## CC(C)(O/N=C(\C(=O)N[C@@H]1C(=O)N2C(C(=O)[O-])=C(C[n+]3ccccc3)CS[C@H]12)c1csc(N)n1)C(=O)O [Ceftazidime]
IMP-11 [2]
  Km: 232 ± 18.9 µM

## C[C@@H](O)[C@H]1C(=O)N2C(C(=O)O)=C(SCCN=CN)C[C@H]12 [Imipenem]
IMP-11 [3]
  Km: 41 ± 18.4 µM

## C[C@@H](O)[C@H]1C(=O)N2C(C(=O)O)=C(S[C@@H]3CN[C@H](C(=O)N(C)C)C3)[C@H](C)[C@H]12 [Meropenem]
IMP-11 [3]
  Km: 14.8 ± 2.8 µM

## IMP-68 (Klebsiella pneumoniae)
[4]
  Km: 326 ± 131 µM
  kcat: 3.9 ± 2.1 s⁻¹
  kcat/Km: 12000 M⁻¹ s⁻¹
[5]
  Km: 465 ± 200 µM
  kcat: 1.7 ± 0.44 s⁻¹
  kcat/Km: 3700 M⁻¹ s⁻¹
[6]
  Km: 10.3 ± 2.3 µM
  kcat: 25.7 ± 1.3 s⁻¹
  kcat/Km: 2.5e+06 M⁻¹ s⁻¹
[7]
  Km: 347 ± 52.2 µM
  kcat: 36.7 ± 7.8 s⁻¹
  kcat/Km: 110000 M⁻¹ s⁻¹
[8]
  Km: 10.1 ± 0.94 µM
  kcat: 9.7 ± 1.7 s⁻¹
  kcat/Km: 890000 M⁻¹ s⁻¹
